In test [1] the target is thermostabilized turkey beta-1 adrenergic receptor (turkey) (UniProt P07700). Description: cross-linking; apo β1AR with Gαi or β-arrestin-1 at equimolar concentration; BS(PEG)9, high-mass MALDI-MS; percent complex by normalisation with β-Gal.
Test [2] shares this target. Description: cross-linking; carvedilol-bound β1AR with Gαi or β-arrestin-1 at equimolar concentration; BS(PEG)9, high-mass MALDI-MS; percent complex by normalisation with β-Gal.
For test [3] the target is unchanged. Description: cross-linking; isoprenaline-bound β1AR with Gαi or β-arrestin-1 at equimolar concentration; BS(PEG)9, high-mass MALDI-MS; percent complex by normalisation with β-Gal.
For test [4] the target is unchanged. Description: cross-linking; Kd by titrating the partner protein against isoprenaline-bound β1AR; 20 mM Hepes pH 7.5, 40 mM NaCl, 0.01% lauryl maltose neopentyl glycol; BS(PEG)9, high-mass MALDI-MS, normalised to β-galactosidase.
For test [5] the target is unchanged. Description: cross-linking; Kd by titrating the G protein against the apo GPCR; 20 mM Hepes pH 7.5, 40 mM NaCl, 0.01% lauryl maltose neopentyl glycol; BS(PEG)9, high-mass MALDI-MS, normalised to β-galactosidase.
Test [6] concerns the target mouse angiotensin II type 1 receptor F117W Δ324 with a C-terminal 1D4 tag (mouse). Description: cross-linking + other: high-mass MALDI-MS; ligand-free (apo) GPCR, 5 µM, mixed with partner protein at various concentrations, 1 h at room temperature, BS(PEG)9 cross-linking, β-Gal as internal standard; 20 mM Hepes pH 7.5, 40 mM NaCl, 0.01% LMNG; Ka = 1/Kd.
In test [7] the target is angiotensin II-bound mouse angiotensin II type 1 receptor F117W Δ324 (mouse | human). Description: cross-linking + other: high-mass MALDI-MS; angiotensin II-bound AT1R (angII-AT1R), 5 µM, mixed with partner protein at various concentrations, 1 h at room temperature, BS(PEG)9 cross-linking, 1.0 µM β-Gal as internal standard; 20 mM Hepes pH 7.5, 40 mM NaCl, 0.01% LMNG; Ka = 1/Kd.

Test [8] concerns the target angiotensin II-bound F117W mutant of mouse angiotensin II type 1 receptor (mouse | not stated) (UniProt P29754). Description: cross-linking; Kd by titrating the G protein against ligand-bound AT1R; 20 mM Hepes pH 7.5, 40 mM NaCl, 0.01% lauryl maltose neopentyl glycol; BS(PEG)9, high-mass MALDI-MS, normalised to β-galactosidase.
Test [9] concerns the target thermostabilized turkey beta-1 adrenergic receptor (turkey) (UniProt P07700). Description: cross-linking; β1AR and partner with 1 or 25 µM s32212 at increasing concentrations of isoprenaline; BS(PEG)9, high-mass MALDI-MS.

For orientation: Kd means a measure of binding affinity in units of concentration.

Sequence of thermostabilized turkey beta-1 adrenergic receptor (turkey) (P07700 whole entry): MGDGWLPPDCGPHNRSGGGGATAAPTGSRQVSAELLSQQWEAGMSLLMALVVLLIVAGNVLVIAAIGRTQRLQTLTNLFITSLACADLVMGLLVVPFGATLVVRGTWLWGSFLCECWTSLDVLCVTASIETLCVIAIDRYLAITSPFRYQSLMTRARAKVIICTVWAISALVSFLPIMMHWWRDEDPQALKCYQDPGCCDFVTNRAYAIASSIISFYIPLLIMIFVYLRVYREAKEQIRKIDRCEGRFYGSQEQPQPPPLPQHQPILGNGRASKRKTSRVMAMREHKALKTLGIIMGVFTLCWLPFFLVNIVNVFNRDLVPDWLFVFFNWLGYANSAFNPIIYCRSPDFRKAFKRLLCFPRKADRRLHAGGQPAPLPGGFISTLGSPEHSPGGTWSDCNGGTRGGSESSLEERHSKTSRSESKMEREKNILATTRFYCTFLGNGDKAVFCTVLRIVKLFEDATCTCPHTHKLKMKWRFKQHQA
Sequence of full-length wild-type β-arrestin-1 (P49407 whole entry): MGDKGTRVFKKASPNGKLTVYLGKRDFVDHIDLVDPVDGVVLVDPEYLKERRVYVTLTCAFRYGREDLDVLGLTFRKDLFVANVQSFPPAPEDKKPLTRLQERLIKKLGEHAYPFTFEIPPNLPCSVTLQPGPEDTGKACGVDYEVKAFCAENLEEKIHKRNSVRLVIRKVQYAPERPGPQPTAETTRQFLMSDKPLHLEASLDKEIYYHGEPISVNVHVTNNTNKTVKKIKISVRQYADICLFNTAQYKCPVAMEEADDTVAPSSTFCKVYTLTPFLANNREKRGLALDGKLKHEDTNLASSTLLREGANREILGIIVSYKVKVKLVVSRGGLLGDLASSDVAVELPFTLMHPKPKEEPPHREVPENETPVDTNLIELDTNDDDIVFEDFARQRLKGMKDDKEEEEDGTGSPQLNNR

As for “full-length wild-type Gαi (from UniProt P63096 1-354) (natural protein)”, the results for the complex formation in [1], in test [2] and in [3] were 60%, 92% and 60%, respectively.

Turning to “full-length wild-type β-arrestin-1 (from UniProt P49407 1-418) (natural protein)”, the complex formation in [1] was 32%; in test [2] it was 88%; in test [3] it was 32%.

With “mGo truncated by its last five residues (domain or fragment)”, the results for the Kd in test [4] and in test [5] were 0.23 µM and 0.28 µM, respectively.

As for mini-Go (domain or fragment), the Ka amounted to 270000 M⁻¹ in test [6] and 1.02e+06 M⁻¹ in [7].

In test [4], “mini-Gα protein mGi (domain or fragment)” returned a Kd of 1.62 µM.

On to “mini-Gα protein mGo (domain or fragment)”, for which the Kd in test [4] and in test [5] was 0.25 µM each time. Further, the binding strength relative to mGq in [8] worked out at 2 fold.

In test [4], “mini-Gα protein mGq (domain or fragment)” had a Kd of 1.24 µM.

In turn, “mini-Gα protein mGs (from UniProt P63092 87-394) (domain or fragment)” came in with a Kd in test [4] of 0.35 µM. Moreover, the complex formation recovered by raising isoprenaline (with s32212) in [9] was determined as 80%.

The values above are taken from publication PMC8346855.
